# Assay results as given in patent US10543284B2, “Anti-c-Met antibody and anti-c-Met antibody-cytotoxic drug conjugate and pharmaceutical use thereof” (Suzhou Suncadia Biopharmaceuticals Co., Ltd., priority 2015, dated 2020).
# B1: Ab-9: humanized anti c-Met antibody: heavy chain sequence of SEQ ID NO: 23 and light chain sequence of SEQ ID NO: 26 (antibody)
# heavy: QVTLKESGPVLVKPTETLTLTCTVSGFSLPNYGVHWVRQPPGKALEWLAVIWSGGSTNYAAAFVSRLRISKDTSKSQVVFTMNNMDPVDTATYYCARNHDNPYNYAMDYWGQGTTVTVSSASTKGPSVFPLAPCSRSTSESTAALGCLVKDYFPEPVTVSWNSGALTSGVHTFPAVLQSSGLYSLSSVVTVPSSNFGTQTYTCNVDHKPSNTKVDKTVERKCCVECPPCPAPPVAGPSVFLFPPKPKDTLMISRTPEVTCVVVDVSHEDPEVQFNWYVDGVEVHNAKTKPREEQFNSTFRVVSVLTVVHQDWLNGKEYKCKVSNKGLPAPIEKTISKTKGQPREPQVYTLPPSREEMTKNQVSLTCLVKGFYPSDIAVEWESNGQPENNYKTTPPMLDSDGSFFLYSKLTVDKSRWQQGNVFSCSVMHEALHNHYTQKSLSLSPGK
# light: DIVLTQSPASLAVSPGQRATITCRANKSVSTSTYNYLHWYQQKPGQPPKLLIYLASNLASGVPARFSGSGSGTDFTLTINPVEANDTANYYCQHSRDLPPTFGQGTKLEIKRTVAAPSVFIFPPSDEQLKSGTASVVCLLNNFYPREAKVQWKVDNALQSGNSQESVTEQDSKDSTYSLSSTLTLSKADYEKHKVYACEVTHQGLSSPVTKSFNRGEC
# modifications: Ab-9 heavy chain; Ab-9 light chain
# Columns and labels:
# [1] = system: MKN45 cells expressing c-Met; test: Endocytosis of anti c-Met antibody in MKN45 cells (FACS); type: cell-based, human; conditions: 10 μg/ml
# Method: Antibodies of the invention could bind to human c-Met, have very good in vitro activity, and inhibit tumor activity in vivo. […] In order to detect whether the antibody could be taken up into the cell along with human c-Met once bound to human c-Met, the human gastric cancer cell line MKN45 (JCRB, Cat No.: JCRB0254) expressing c-Met was used for evaluation. […] The plate was incubated at 4° C. for 1 hour. FACS buffer (phosphate buffer solution including 2.5% fetal bovine serum; Hyclone, Cat: SH30256.01B) was added, and the plate was centrifuged at 4° C., 1300 rpm for 4 minutes. The supernatant was discarded, and this procedure was repeated three times. 100 μl secondary antibody solution (Fluorescence labeled goat anti mouse secondary antibodies at 1:200 dilution, Biolegend, Cat No. 405307; Fluorescence labeled anti-human secondary antibody at 1:30 dilution, Biolegend, Cat No. 409304) was added into each well, and the plate was incubated at 4° C. for 1 hour. FACS buffer was added and the plate was centrifuged at 4° C., 1300 rpm for 4 minutes. The supernatant was discarded, and this procedure was repeated three times. […] FACS buffer was added and the plate was centrifuged at 4° C., 1300 rpm for 4 minutes. The supernatant was discarded, and this procedure was repeated three times. 200 μl Stripping buffer (0.05 M glycine, pH 3.0; 0.1 M NaCl, mixed in accordance with 1:1 (v/v)) was added to each well. The cells were resuspended and were incubated for 7 minutes at room temperature. The cells were centrifuged at room temperature at 1300 rpm for 4 minutes, and the supernatant was discarded. 200 μl neutralizing wash buffer (0.15M trihydroxymethyl aminomethane, pH 7.4) was added to each well, the cells were resuspended and centrifuged at room temperature at 1300 rpm for 4 minutes, and the supernatant was discarded. 200 μl FACS buffer was added, and the cells were resuspended. Samples were prepared and detected by flow cytometry (BD FACS Calibur). Endocytosis of c-Met antibody %=(intensity of fluorescence at various time points−average intensity of fluorescence at time 0)/average intensity of fluorescence at time 0.
# [2] = system: Caki-1 cells; test: Agonist test: stimulation of Caki-1 cell proliferation; type: cell-based, human; conditions: highest concentration 20 μg/ml, 5 days
# Method: Caki-1 cells express the hepatocyte growth factor receptor c-Met, and HGF can bind c-Met to stimulate Caki-1 cell proliferation. Therefore, agonist activity of anti c-Met antibodies could be evaluated by the proliferation of Caki-1 cells stimulated by the humanized anti c-Met antibodies of the invention compared with the proliferation of Caki-1 cells stimulated by HGF.
# Caki-1 cells (Shanghai Branch of Chinese Academy of Science, TCHu135, P12) were added to a 96-well culture plate (costar, #3799) at 1000/well. The medium was McCoy's 5A (invitrogen, #16600)+10% FBS (GIBCO-10099141), and the condition was at 37° C. for 24 hours. Afterwards, cells were starved for 24 hours (The medium for cell starvation is McCoy's 5A and 0.5% FBS).
# [3] = system: MKN45 cells; test: Inhibition of proliferation of MKN45 gastric cancer cells (CellTiter-Glo, 5 days); type: cell-based, human
# Text: The clones above were selected and further cultured to obtain monoclones. After verification of binding activity by ELISA, monoclones were selected for cultivation, and the resulting supernatant was subjected to a cell viability assay. According to the experiment principle, anti-human c-Met antibodies of the invention are able to inhibit phosphorylation of c-Met expressed on the surface of human gastric cancer cell line MKN45, thereby inhibiting the proliferation of MNK45 cells.
# Human gastric cancer cells (MKN45, JCRB, JCRB0254, P11) were added to a 96-well cell culture plate (costar, #3799) at 1×10^5 cells/mL and 50 μl/well. The medium was RPMI1640 medium: (GIBCO, cat #11835)+10% FBS (GIBCO-10099141). Anti-human c-Met antibodies to be tested were added at 50 μl/well, and the plate was cultured for 5 days in incubator at 37′C (Manufacture: SANYO; Equipment No. TINC035). CellTiter-Glo® Luminescent Cell Viability Assay (Promega, G7573) was used, and the proliferation of cells was detected according to the instructions. The plate was read by a PerkinElmer plate reader, TREA001-RDA-IBA100. The following formula was used to calculate the percentage proliferation of cells: % proliferation of cells=(1−cell reads in experimental group/cell reads in untreated group)×100%.
# [4] = molecular target: T1, cell line MKN45, which overexpresses c-Met (Homo sapiens, UniProt P08581); test: FACS binding activity with MKN45 cells; conditions: Table 6
# T1 construct: host or cells: MKN45
# Method: A FACS method was used to detect the binding activity of c-Met humanized antibodies with the cell line MKN45, which overexpresses c-Met. […] The plate was incubated for 1 hour at 4° C. FACS buffer (PBS comprising 2.5% (v/v) FBS (Hyclone, Cat: SH30256.01B)) was added. The plate was centrifuged under 4° C. at 1300 rmp for 4 minutes, and the supernatant was discarded. This procedure was repeated three times. 100 μl of secondary antibodies (Fluorescence labeled goat-anti-mouse secondary antibodies with 1:200 dilution, Biolegend, Cat No. 405307; Fluorescence labeled anti-human secondary antibody with 1:30 dilution, Biolegend, Cat No. 409304) were added to each well, and the plate was incubated for 1 hour at 4° C. FACS buffer was added, the plate was centrifuged under 4° C. at 1300 rpm for 4 minutes, the supernatants were discarded; and this procedure was repeated three times. 200 μl FACS buffer was added to resuspend the cells, and the samples were prepared and detected by flow cytometry (BD FACS Array).
# T1 sequence (P08581 25-1390): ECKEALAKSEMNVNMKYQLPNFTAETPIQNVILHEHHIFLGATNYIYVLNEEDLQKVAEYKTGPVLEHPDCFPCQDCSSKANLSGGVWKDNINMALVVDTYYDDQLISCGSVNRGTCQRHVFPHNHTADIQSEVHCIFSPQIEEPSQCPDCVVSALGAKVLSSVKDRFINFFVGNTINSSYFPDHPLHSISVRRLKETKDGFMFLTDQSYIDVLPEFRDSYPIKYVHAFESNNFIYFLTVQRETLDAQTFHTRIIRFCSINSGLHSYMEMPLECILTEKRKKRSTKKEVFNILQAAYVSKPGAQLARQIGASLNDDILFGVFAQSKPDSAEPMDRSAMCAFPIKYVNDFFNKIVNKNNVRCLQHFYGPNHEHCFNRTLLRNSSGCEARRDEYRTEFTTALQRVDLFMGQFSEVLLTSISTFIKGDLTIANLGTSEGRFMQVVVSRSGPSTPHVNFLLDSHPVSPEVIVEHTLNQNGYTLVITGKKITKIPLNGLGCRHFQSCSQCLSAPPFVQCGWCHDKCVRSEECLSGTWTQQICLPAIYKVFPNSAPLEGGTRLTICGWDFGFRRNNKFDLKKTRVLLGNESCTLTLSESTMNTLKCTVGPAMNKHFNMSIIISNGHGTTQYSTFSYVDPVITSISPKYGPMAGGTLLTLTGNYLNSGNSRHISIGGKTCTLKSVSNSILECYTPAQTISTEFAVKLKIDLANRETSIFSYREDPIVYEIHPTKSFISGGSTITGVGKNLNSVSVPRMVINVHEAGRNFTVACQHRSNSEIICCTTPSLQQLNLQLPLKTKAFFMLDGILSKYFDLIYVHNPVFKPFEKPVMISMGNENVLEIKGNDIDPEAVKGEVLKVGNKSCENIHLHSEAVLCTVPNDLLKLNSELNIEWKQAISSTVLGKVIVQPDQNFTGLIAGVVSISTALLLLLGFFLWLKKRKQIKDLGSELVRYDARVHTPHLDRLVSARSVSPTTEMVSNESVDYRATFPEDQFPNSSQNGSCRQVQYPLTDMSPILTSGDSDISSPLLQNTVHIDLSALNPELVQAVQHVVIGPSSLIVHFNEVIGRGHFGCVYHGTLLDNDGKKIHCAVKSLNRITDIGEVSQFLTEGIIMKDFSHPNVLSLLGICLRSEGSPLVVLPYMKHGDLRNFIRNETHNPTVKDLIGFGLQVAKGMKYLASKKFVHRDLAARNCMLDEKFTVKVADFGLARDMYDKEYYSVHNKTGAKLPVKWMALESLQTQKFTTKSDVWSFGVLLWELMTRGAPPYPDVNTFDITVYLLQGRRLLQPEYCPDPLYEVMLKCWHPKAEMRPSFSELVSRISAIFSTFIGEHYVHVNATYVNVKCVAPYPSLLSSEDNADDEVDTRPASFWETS
molecule,measurement,setting,value
B1,endocytosis % 0 h,[1]; 0 h,0%
same,endocytosis % 0.5 h,[1]; 0.5 h,26%
same,endocytosis % 1 h,[1]; 1 h,32%
same,endocytosis % 2 h,[1]; 2 h,32%
same,endocytosis % 4 h,[1]; 4 h,31%
same,Stimulation of proliferation of Caki-1,[2],none
same,Activity of inhibition of MKN45 cell proliferation Maximum inhibition rate (%),[3],33%
same,EC50,[4],1.6 nM
